Data published in paper PMC2713827, “Characterization of a Lamellocyte Transcriptional Enhancer Located within the misshapen Gene of Drosophila melanogaster”.

Target: T1, dFos DNA-binding domain;dJun DNA-binding domain (Drosophila melanogaster;Drosophila …, UniProt P21525;P18289 418-481;212-275, |)
T1 sequence 1: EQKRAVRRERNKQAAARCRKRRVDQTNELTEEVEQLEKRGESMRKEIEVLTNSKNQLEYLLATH
T1 sequence 2: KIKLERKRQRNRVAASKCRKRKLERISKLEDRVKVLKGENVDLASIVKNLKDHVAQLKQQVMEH
Assay: EMSA; 10 mM Tris-HCl pH 8.0, 10 mM DTT, 2.5 mM MgCl2, 10% glycerol, poly(dI-dC), BSA, 100 ng dJun and dFos, 1,000 cpm 32P probe; temperature not stated
Details: protein: recombinant;recombinant; tags: 6xHis;6xHis; copies: 1;1; label: 32P

B1: hMTII wt AP-1 probe (dsDNA)
DNA 1: GAGCCGCAAGTGACTCAGCGCGGGGCGTGTGCAG
DNA 2: CTGCACACGCCCCGCGCTGAGTCACTTGCGGCTC
B1: binds.
